Blank lines part the entries; values can stand above or below the binder they belong to.
What was measured:
anti-FIXa-arm of ACE910 = molecular target: T1, anti-FIXa-arm of ACE910; experiment: ELISA, hybridoma culture supernatant
T1 construct: Q499/J327; also called anti-FIXa side Fab of ACE910; anti-FIXa-F(ab')2
Method: (§1) Mice and rats were immunized with anti-FIXa-F(ab′)2 or anti-FX-F(ab′)2. Cells obtained from the spleen removed from the mice or rats or from rat lymph nodes were subjected to cell fusion with mouse myeloma cells by following general methods to produce the hybridomas. The culture supernatants of the hybridomas were evaluated by ELISA which detects the binding of ACE910 to the anti-FIXa-arm or the anti-FX-arm, and ultimately, mouse antibodies, AQ8 and AQ1, and rat antibody, AQ512, which bind only to the anti-FIXa-arm but not to the anti-FX-arm of ACE910, and rat antibodies, AJ540, AJ114, AJ521, AJ522, and AJ541, which bind only to the anti-FX-arm but not to the anti-FIXa-arm of ACE910 were selected. In addition, the nucleotide sequences of the variable regions of the AQ8 antibody or the AJ540 antibody were analyzed. The nucleotide sequences of the variable regions of AQ8 and AJ540, and amino acid sequences predicted therefrom were analyzed using GENETYX Ver.9 (GENETYX CORPORATION).

anti-FX-arm of ACE910 = molecular target: T2, anti-FX-arm of ACE910; experiment: ELISA, hybridoma culture supernatant
T2 construct: also called anti-FX side Fab of ACE910; anti-FX-F(ab')2
T2 sequence (VH, as listed by the source, chain 1 of 2): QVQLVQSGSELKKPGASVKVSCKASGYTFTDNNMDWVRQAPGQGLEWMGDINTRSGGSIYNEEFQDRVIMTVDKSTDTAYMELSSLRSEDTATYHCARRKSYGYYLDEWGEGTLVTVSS
T2 sequence (VL, as listed by the source, chain 2 of 2): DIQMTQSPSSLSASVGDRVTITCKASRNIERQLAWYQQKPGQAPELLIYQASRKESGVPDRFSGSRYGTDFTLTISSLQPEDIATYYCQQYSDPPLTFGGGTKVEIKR
Method: as §1

T1 sequence (VH, as listed by the source, chain 1 of 2): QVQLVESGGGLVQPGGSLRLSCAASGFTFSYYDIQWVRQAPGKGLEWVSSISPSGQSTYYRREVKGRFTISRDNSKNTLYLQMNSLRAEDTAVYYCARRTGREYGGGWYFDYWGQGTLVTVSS
T1 sequence (VL, as listed by the source, chain 2 of 2): as the sequence (VL, as listed by the source, chain 2 of 2) above

binding result (anti-FIXa-arm of ACE910): no binding
B1: AJ540 (antibody, V domains shown)
VH: QIQLVQSGPELKKPGESVKISCKASGYTFTDYAMHWVKQVPGKGLKWMGWINTYTGKPTYADDFKGRFVFSLEASASTANLQISNLKNEDTANVFCAREGGGYYWYFDFWGPGTMVTVSS
VL: DIVMTQSPTSMSISVGDRVTMNCKANQNVDFNVDWYQQKTGQSPKLLIYKASNRYTGVPDRFTGSGSGTDFTFTISNMQAEDLAVYYCMQSNSFPLTFGSGTNLEIK
notes: Rat antibody from a hybridoma (culture supernatant in the ELISA); also called AJ540 antibody

binding result (anti-FX-arm of ACE910): no binding
B2: AQ8 (antibody, V domains shown)
VH: EVNLVESGGGLVQPGGSMSLSCAASGFTFTDYYMSWVRQPPGKALEWLALIRNKANGYTTEYSASVKGRFTISRDNSQSILYLQMNALRAEDSATYYCARDSYYSYDGYAMDYWGQGTSVTVSS
VL: DIQMTQSPASLAASVGETITITCQASENIYFSLAWYQQKQGKSPQLLIYNTDSLKDGVPSRFSGSGSGTQYSMKINSMQPEDTATYFCRQSYDFPWTFGGGTKLEIK
notes: Mouse antibody from a hybridoma (culture supernatant in the ELISA); also called AQ8 antibody
